Columns and labels:
[1] = system: ADH; assay: Stability and degradation profile of ADH in the presence of AcH scavengers over time; format: physicochemical, Saccharomyces cerevisiae; conditions: 37° C., gentle shaking
Description: Conditions: 37° C. for up to 60 min with gentle shaking (100 rpm), ADH activity assessed via NADH production (340 nm). AcH scavenger-containing composition (total 455 mg): Thiamine hydrochloride (Vitamin B1): 100 mg; Glutathione (GSH): 15 mg; NAC (N-Acetyl-Cysteine) OR L-Cysteine: 200 mg; α-Lipoic acid: 40 mg; Pyridoxine hydrochloride (Vitamin B6): 100 mg and buffer Solution: 100 mM sodium phosphate buffer, pH 7.4.

[2] = system: HepG2 Liver Cells; assay: HepG2 ROS under EtOH exposure (DCFH-DA assay); format: cell-based; conditions: HepG2, 100 mM EtOH for 24 hours
Description: (§1) Cells were exposed to 100 mM EtOH for 24 hours. Group 1 (Control): EtOH only; Group 2: EtOH+ADH; Group 3: EtOH+AcH scavenger-containing composition; and Group 4 (Combined): EtOH+ADH+AcH scavenger-containing composition.
(§2) Cell viability was detected by MTT assay (absorbance at 570 nm). ROS (Reactive Oxygen Species) was detected by DCFH-DA assay (fluorescence at 488 nm).

[3] = In vitro reduction of EtOH by ADH and AcH scavengers (NAD/NADH-based enzymatic assay, 340 nm); format: biochemical; conditions: 200 U ADH, 455 mg scavenger mixture, pH 7.4, 37° C., 30 minutes
Description: (§3) An in vitro study was conducted to evaluate the effect of a combined formulation of ADH and AcH scavengers on the reduction of EtOH and AcH concentrations. The study was designed to assess the enzymatic conversion of EtOH to AcH by ADH and the subsequent removal of AcH by scavengers. The experiment was performed using enzyme preparation from yeast (Saccharomyces cerevisiae).
(§4) The following materials and reagents were used: EtOH 99.9% pure, analytical grade and ADH purified from Saccharomyces cerevisiae (500 U/mg protein) (SEQ ID NO: 1, see Table 1). AcH scavenger-containing composition (total 455 mg): Thiamine hydrochloride (Vitamin B1): 100 mg; Glutathione (GSH): 15 mg; NAC (N-Acetyl-Cysteine) OR L-Cysteine: 200 mg; α-Lipoic acid: 40 mg; Pyridoxine hydrochloride (Vitamin B6): 100 mg and buffer Solution: 100 mM sodium phosphate buffer, pH 7.4.
(§5) The experiment was conducted in triplicate with appropriate controls to ensure reproducibility. […]
(§6) EtOH concentration was measured using a NAD/NADH-based enzymatic assay with a spectrophotometer at 340 nm. AcH concentration was measured using a modified Hantzsch reaction assay, which detects AcH at 412 nm.

[4] = In vivo blood EtOH concentration in rodents after oral EtOH; design: species or system Sprague-Dawley rats; conditions: rat blood, 2 g/kg EtOH oral, ADH 600 U/kg IP
Description: The study was performed to evaluate the efficacy of a combined formulation of ADH and AcH scavengers in reducing blood EtOH and AcH concentrations in an in vivo rodent model.
12 male Sprague-Dawley rats (200 to 250 g), housed under standard conditions (12-hour light/dark cycle, 22±2° C.) were administered with 2 g/kg EtOH orally via gavage.
Groups (n=3): Group 1 (Control): EtOH only (no ADH or scavengers). Group 2: EtOH+ADH (600 U/kg, intraperitoneally). Group 3: EtOH+AcH scavenger-containing composition. Group 4 (Combined): EtOH+ADH (600 U/kg, IP)+AcH scavenger-containing composition.
Blood samples were collected from the tail vein at 0, 15, 30, 60, and 120 minutes post-EtOH administration. EtOH concentration was measured using a NAD/NADH-based enzymatic assay.

[5] = system: HepG2 Liver Cells; assay: HepG2 cell viability under EtOH exposure (MTT assay); format: cell-based; conditions: HepG2, 100 mM EtOH for 24 hours
Description: as §1, §2

[6] = system: ADH purified from Saccharomyces cerevisiae; assay: Enzyme kinetics of ADH with AcH scavengers (Michaelis-Menten, NADH production at 340 nm); format: biochemical; conditions: pH 7.4, 37° C., 5 min incubation
Description: ADH purified from Saccharomyces cerevisiae (500 U/mg protein) was used. EtOH Concentrations: 5, 10, 20, 50, 100, 200 mM. Reaction Volume: 1 mL with 100 mM sodium phosphate buffer (pH 7.4). 37° C., 5 min incubation. NADH production measured at 340 nm using a spectrophotometer. Two groups: a) control ADH+EtOH; and b) ADH+EtOH+AcH scavenger mixture.

[7] = In vitro AcH concentration after ADH and AcH scavengers (modified Hantzsch reaction assay, 412 nm); format: biochemical; conditions: 100 mM EtOH start, 200 U ADH, 455 mg scavenger mixture, pH 7.4, 37° C., 30 minutes
Description: as §3, §4, §5, §6

B1: ADH: ADH purified from Saccharomyces cerevisiae (500 U/mg protein), SEQ ID NO: 1 (protein, listed as Saccharomyces cerevisiae)
chain: MSTAVAVLTSNADTDIFAKPVAGVDGSHVIDAAAVFGLGKETVVDALKDYKTGATTPAVAQKLGVEGAKALVGVPQKVESNDFFVAKAKDAGTEVIVGGMGGVGLSAIGASLKPGYELDKAKIEVASKLAAGAKVTVITPQCGHEVIVGVPPDSQNLSMRIAQLGGKSPFTKEKDLNYFAVEKAKELGATGSKIINLIMGKVMPEGQKIHLGHEIVGDLGVVTKDAASGKLPIISIGHEAVKNAVKVLENAELEGLTKEGAKVTVVGNPQIYSDDHVAVAGTSLSTLNKLLDAIKKADTSKPIQEVLSDKAKEVGIEEGLMTTVHAITGAAGAASALPFGVTAAL
[1]; 30 min
  ADH activity (% of t = 0): 87 % of t = 0
[1]; 60 min
  ADH activity (% of t = 0): 62 % of t = 0
[2]; DCFH-DA, control = EtOH only
  ROS (% of control): 85.6 % of control
[2]; results interpretation
  ROS Impact (in words): Moderate ROS
[3]; 100 mM EtOH start
  EtOH Final: 85.8 mM
[3]; 100 mM EtOH, 1 mL
  EtOH Reduction (%): 14.2%
[4]; 0 min
  EtOH concentration (% of control): 95 % of control
[4]; 15 min
  EtOH concentration (% of control): 85.2 % of control
[4]; 30 min
  EtOH concentration (% of control): 75.8 % of control
[4]; 60 min
  EtOH concentration (% of control): 68 % of control
[4]; 120 min
  EtOH concentration (% of control): 44.8 % of control
[5]; MTT
  Cell viability (%): 67.1%
[5]; results interpretation
  Overall Impact on Viability (in words): Viability increases
[6]; EtOH 5-200 mM
  Vmax: 105.2 µmol/min
  kcat: 105.2
[6]; substrate EtOH 5-200 mM
  Km: 32.5 mM
[7]
  AcH Final: 235 µM

Reference: patent US12527847B1, “Compositions and methods for reducing blood ethanol concentration through alcohol dehydrogenase and acetaldehyde scavengers” (Goa Therapeutics Corporation, priority 2025, dated 2026)
